Source: IntAct's records for PubMed 21903585

B1: RAD51-associated protein 1 (Homo sapiens), Q96B01-2 (parent)
chain: MVRPVRHKKPVNYSQFDHSDSDDDFVSATVPLNKKSRTAPKELKQDKPKPNLNNLRKEEIPVQEKTPKKRMALDDKLYQRDLEVALALSVKELPTVTTNVQNSQDKSIEKHGSSKIETMNKSPHISNCSVASDYLDLDKITVEDDVGGVQGKRKAASKAAAQQRKILLEGSDGDSANDTEPDFAPGEDSEDDSDFCESEDNDEDFSMRKSKVKEIKKKEVKVKSPVEKKEKKSKSKCNALVTSVDSAPAAVKSESQSLPKKVSLSSDTTRKPLEIRSPSAESKKPKWVPPAASGGSRSSSSPLVVVSVKSPNQSLRLGLSRLARVKPLHPNATST
partner: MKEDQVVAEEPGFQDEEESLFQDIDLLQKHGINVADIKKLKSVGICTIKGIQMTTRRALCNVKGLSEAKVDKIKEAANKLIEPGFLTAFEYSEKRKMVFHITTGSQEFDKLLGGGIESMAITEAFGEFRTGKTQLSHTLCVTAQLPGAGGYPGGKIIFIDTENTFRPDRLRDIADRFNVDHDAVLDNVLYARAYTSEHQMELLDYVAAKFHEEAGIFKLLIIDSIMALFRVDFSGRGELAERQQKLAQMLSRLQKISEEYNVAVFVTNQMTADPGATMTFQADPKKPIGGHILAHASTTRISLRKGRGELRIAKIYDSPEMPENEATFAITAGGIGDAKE

Variants of: B1
Conditions: with dmc1_human DMC1, Q14565

Row | effect of a mutation on the interaction | Variant
1 | disrupting interaction | W287A
